# Results from US20170306014A1 (INNATE PHARMA, published 2017).
# Substitutions are numbered along the chain they refer to. Numbers in names are those of the source.
# T1: Human Siglec-11 (human, UniProt Q96RL6 29-698)
# T1 construct: CHO HuSiglec-11 cell line; also called HuSiglec-11
# T1 sequence: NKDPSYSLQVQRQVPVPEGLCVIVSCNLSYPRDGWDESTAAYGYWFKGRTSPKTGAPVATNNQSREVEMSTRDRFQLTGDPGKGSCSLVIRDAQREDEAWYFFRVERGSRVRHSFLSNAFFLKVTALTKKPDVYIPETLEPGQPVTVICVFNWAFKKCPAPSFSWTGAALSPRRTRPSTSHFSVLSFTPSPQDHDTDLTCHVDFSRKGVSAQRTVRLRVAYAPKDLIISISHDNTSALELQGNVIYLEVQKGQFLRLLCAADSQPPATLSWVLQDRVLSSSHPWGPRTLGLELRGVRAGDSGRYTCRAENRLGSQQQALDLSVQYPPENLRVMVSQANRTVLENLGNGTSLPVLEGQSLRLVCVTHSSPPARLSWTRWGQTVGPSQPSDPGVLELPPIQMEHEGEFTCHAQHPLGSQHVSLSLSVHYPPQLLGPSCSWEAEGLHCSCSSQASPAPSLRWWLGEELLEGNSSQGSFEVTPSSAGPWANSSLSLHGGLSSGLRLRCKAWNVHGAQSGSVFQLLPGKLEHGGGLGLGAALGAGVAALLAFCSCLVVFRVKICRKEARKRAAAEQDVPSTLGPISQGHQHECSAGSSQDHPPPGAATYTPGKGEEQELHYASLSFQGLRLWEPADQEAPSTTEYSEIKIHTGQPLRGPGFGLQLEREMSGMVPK
# T2: Human Siglec-5 (human, UniProt O15389 17-551)
# T2 construct: CHO HuSiglec-5 cell line; also called HuSiglec-5
# T2 sequence: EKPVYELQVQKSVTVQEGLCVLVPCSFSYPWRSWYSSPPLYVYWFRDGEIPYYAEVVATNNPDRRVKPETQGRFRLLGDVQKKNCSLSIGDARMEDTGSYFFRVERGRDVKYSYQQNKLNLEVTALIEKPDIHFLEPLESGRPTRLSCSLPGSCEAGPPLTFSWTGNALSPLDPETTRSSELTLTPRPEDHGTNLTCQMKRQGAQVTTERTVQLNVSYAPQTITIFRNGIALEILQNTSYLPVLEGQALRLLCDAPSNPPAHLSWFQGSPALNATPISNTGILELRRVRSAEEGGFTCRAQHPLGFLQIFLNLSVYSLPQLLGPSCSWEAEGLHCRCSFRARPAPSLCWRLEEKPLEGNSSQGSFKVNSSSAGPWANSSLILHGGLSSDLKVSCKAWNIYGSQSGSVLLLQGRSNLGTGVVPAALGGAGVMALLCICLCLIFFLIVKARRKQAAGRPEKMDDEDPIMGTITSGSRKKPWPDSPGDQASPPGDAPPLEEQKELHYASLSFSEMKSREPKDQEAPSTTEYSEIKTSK
# T3: Human Siglec-10 (human, UniProt Q96LC7 17-697)
# T3 construct: CHO HuSiglec-10 cell line; also called HuSiglec-10
# T3 sequence: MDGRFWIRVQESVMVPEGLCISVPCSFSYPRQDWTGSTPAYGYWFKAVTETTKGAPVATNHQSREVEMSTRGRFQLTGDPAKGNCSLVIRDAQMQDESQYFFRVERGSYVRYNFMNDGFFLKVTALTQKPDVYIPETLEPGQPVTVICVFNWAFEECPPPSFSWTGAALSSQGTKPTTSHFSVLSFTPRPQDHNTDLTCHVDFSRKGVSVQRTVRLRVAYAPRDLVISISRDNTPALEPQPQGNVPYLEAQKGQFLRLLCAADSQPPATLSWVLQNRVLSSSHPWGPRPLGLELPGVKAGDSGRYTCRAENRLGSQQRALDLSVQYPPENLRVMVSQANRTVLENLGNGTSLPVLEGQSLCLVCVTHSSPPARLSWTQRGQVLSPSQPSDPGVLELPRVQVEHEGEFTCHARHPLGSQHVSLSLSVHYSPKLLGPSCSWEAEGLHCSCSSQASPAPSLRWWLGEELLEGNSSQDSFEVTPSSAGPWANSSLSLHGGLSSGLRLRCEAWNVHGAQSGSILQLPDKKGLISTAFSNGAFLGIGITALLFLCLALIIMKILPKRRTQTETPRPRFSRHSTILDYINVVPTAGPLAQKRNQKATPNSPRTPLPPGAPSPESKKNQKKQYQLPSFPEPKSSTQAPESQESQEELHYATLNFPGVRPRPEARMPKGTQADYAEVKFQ
# B1: antibody 3A11 (antibody, V domains shown)
# VH: EVQLQQSGTVLARPGASVKMSCKASGYSFTSYWMHWVKQRPGQGLEWIGAIYPGNSDTSYNQKFKDKAKLTAVTSASTAYMELSSLTNEDSAVYYCTTYYRYDGGFDYWGQGTTLTVSS
# VL: DIQMTQSPKSMSMSVGERVTLSCKASETVGTYVSWYQQKPEQSPKLLIFGASNRNTGVPDRFTGSGSATDFTLTISSVQAEDLADYHCGQSYNYPYTFGGGTKLEIK
# notes: Raised in Balb/c mice; hybridoma supernatants were screened with goat anti-mouse detection, and selected antibodies were also made as chimeric human IgG1 (also with N297Q); also called mAb 3A11
# B2: antibody 2B4 (antibody, V domains shown)
# VH: B1 VH with S31N, N61I, D66G
# VL: B1 VL with Q3V, T28N, G30D, E41D, I48L, F49Y, S77N, N93S, Y94Q
# notes: Mouse-derived; also called mAb 2B4
# B3: antibody 1H9 (antibody, V domains shown)
# VH: QVQLQQSGAELVRPGASVKLSCKAMGNTFTDYEMHWVKQTPVHGLEWIGAIHPGSGGTVYNQKFRGKAALTADKSSSTAYMELSSLTSEDSAVYYCTREVSGTVYWGQGTTLTVSS
# VL: DIVMTQAAFSNPVTLGTSASISCRSSKSLLHSNGITYLFWYLQKPGQSPQLLIYQMSNLASGVPDRFSSSGSGTDFTLRISRVEAEDVGVYYCAQNLELPWTFGGGTKLEIK
# notes: Mouse-derived; also called mAb 1H9
# Molecular target: T1, Human Siglec-11
# Experiment: flow cytometry on CHO HuSiglec-11 cell line
# Method: (§1) Cells expressing Siglec-3, -5, -6, -8, -10, -11 and -12 were generated and a representative subset of the cross-reactive Siglec-7/9 antibodies were tested by flow cytometry for binding to the cells. Amino acid sequences and Genbank references for Siglec polypeptides used are shown below in Table 1.
# (§2) Briefly, HuSiglec-expressing CHO cell lines (that expressed one of the Siglecs) were used.
row,Binder,binding result
1,B1,no binding
2,B2,no binding
3,B3,no binding

# Molecular target: T4, Human Siglec-3 (human, UniProt P20138 18-364)
# T4 construct: CHO HuSiglec-3 cell line; also called HuSiglec-3; CD33
# Experiment: flow cytometry on CHO HuSiglec-3 cell line
# Method: as §1, §2
# T4 sequence (P20138 18-364 R69G): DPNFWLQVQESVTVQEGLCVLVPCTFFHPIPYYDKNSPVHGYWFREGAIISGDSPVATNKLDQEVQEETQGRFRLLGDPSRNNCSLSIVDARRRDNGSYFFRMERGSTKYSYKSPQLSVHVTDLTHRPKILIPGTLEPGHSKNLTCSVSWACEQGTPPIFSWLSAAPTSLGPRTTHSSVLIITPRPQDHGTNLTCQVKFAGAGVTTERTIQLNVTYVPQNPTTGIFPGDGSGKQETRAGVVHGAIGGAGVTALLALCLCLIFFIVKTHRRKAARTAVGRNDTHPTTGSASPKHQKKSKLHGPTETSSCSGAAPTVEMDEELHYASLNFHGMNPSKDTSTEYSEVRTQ
row,Binder,binding result
1,B1,no binding
2,B2,no binding
3,B3,no binding

# Molecular target: T5, Human Siglec-9 (human, UniProt Q9Y336 18-463)
# T5 construct: Expressed on CHO cells (huSiglec-9-expressing CHO cell line); also called huSiglec-9; CD329
# Experiment: flow cytometry on Siglec-9-expressing cell line
# T5 sequence (Q9Y336 18-463): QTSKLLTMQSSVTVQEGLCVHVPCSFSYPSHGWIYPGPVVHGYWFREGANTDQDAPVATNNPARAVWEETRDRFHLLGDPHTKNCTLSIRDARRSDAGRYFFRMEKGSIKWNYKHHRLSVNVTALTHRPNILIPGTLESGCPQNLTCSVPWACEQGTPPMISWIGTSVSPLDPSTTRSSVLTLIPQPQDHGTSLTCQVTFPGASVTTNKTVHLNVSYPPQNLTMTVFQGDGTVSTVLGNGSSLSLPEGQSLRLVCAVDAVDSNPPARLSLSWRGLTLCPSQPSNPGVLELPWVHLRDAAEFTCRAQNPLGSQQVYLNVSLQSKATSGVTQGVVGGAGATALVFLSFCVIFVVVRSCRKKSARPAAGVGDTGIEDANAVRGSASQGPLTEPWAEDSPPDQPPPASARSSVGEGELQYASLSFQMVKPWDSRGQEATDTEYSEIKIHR
row,Binder,binding result
1,B1,binds
2,B2,binds
3,B3,binds

# Molecular target: T6, Human Siglec-8 (human, UniProt Q9NYZ4 17-499)
# T6 construct: CHO HuSiglec-8 cell line; also called HuSiglec-8
# Experiment: flow cytometry on CHO HuSiglec-8 cell line
# Method: as §1, §2
# T6 sequence (Q9NYZ4 17-499): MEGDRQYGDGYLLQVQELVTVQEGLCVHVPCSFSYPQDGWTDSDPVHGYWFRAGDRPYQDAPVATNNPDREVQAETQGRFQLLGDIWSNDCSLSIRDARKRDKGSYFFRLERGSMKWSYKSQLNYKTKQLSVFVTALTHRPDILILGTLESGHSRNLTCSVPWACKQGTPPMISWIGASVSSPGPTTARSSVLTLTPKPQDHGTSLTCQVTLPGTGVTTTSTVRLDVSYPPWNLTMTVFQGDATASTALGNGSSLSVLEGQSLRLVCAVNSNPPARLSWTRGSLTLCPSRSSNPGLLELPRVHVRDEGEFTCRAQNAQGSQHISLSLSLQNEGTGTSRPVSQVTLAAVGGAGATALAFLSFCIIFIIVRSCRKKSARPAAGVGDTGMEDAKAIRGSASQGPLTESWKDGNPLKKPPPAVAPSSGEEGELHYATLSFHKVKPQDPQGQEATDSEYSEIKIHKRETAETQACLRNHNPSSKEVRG
row,Binder,binding result
1,B1,no binding
2,B2,no binding
3,B3,no binding

# Molecular target: T7, Human Siglec-12 (human, UniProt Q96PQ1 19-595)
# T7 construct: CHO HuSiglec-12 cell line; also called HuSiglec-12
# Experiment: flow cytometry on CHO HuSiglec-12 cell line
# Method: as §1, §2
# T7 sequence (Q96PQ1 19-595): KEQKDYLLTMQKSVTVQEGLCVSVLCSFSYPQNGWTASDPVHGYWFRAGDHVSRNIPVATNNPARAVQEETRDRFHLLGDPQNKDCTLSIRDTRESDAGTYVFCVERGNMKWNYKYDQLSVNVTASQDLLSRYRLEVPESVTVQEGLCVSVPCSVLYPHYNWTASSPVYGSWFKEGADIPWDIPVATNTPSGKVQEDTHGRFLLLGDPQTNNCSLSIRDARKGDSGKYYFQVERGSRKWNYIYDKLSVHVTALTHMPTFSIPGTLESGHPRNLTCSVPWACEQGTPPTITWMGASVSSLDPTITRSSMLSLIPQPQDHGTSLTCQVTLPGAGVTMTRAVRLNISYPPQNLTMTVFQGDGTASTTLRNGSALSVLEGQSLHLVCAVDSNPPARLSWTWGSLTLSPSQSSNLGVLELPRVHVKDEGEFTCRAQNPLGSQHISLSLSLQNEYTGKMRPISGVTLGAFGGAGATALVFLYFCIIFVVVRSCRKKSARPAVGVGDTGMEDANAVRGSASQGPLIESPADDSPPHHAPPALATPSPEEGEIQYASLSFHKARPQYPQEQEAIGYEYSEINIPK
row,Binder,binding result
1,B1,no binding
2,B2,no binding
3,B3,no binding

# Molecular target: T2, Human Siglec-5
# Experiment: flow cytometry on CHO HuSiglec-5 cell line
# Method: as §1, §2
row,Binder,binding result
1,B1,no binding
2,B2,no binding
3,B3,no binding

# Molecular target: T8, Human Siglec-7 (human, UniProt Q9Y286 19-467)
# T8 construct: Expressed on CHO cells (huSiglec-7-expressing CHO cell line); also called huSiglec-7; CD328
# Experiment: flow cytometry on Siglec-7-expressing cell line
# T8 sequence (Q9Y286 19-467): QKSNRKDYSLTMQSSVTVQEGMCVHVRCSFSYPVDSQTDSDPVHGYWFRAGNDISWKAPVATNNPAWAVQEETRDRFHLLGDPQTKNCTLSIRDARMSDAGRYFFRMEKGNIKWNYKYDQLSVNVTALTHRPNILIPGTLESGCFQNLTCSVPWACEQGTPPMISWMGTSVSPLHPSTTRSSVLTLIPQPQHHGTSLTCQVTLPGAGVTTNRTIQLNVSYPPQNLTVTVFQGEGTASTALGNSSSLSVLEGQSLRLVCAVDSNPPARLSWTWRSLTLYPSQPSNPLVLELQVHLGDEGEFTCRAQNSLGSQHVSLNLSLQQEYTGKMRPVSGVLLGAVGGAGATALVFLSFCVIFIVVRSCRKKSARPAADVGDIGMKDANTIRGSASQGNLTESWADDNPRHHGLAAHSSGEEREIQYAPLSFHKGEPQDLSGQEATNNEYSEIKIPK
row,Binder,binding result
1,B1,binds
2,B2,binds
3,B3,binds

# Molecular target: T9, Human Siglec-6 (human, UniProt O43699 27-453)
# T9 construct: CHO HuSiglec-6 cell line; also called HuSiglec-6
# Experiment: flow cytometry on CHO HuSiglec-6 cell line
# Method: as §1, §2
# T9 sequence (O43699 other isoform, or with tags, fused parts or gaps): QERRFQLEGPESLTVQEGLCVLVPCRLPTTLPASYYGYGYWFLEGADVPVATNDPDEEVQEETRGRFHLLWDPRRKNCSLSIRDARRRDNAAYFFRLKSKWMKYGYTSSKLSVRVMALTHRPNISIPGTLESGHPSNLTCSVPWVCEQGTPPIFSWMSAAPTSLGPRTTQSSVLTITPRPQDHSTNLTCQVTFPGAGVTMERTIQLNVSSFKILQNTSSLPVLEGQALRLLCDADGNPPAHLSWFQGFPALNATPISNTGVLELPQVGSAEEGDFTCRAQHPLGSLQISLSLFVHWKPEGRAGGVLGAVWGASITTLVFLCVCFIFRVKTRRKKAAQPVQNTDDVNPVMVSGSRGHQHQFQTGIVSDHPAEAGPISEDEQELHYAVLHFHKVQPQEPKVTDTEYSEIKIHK
row,Binder,binding result
1,B1,no binding
2,B2,no binding
3,B3,no binding

# Molecular target: T3, Human Siglec-10
# Experiment: flow cytometry on CHO HuSiglec-10 cell line
# Method: as §1, §2
row,Binder,binding result
1,B1,no binding
2,B2,no binding
3,B3,no binding
